Laboratory results from patent US20070065890.

B1: baculovirus-expressed recombinant FLAG-SirT1 protein (protein)
chain: MADEAALALQPGGSPSAAGADREAASSPAGEPLRKRPRRDGPGLERSPGEPGGAAPEREVPAAARGCPGAAAAALWREAEAEAAAAGGEQEAQATAAAGEGDNGPGLQGPSREPPLADNLYDEDDDDEGEEEEEAAAAAIGYRDNLLFGDEIITNGFHSCESDEEDRASHASSSDWTPRPRIGPYTFVQQHLMIGTDPRTILKDLLPETIPPPELDDMTLWQIVINILSEPPKRKKRKDINTIEDAVKLLQECKKIIVLTGAGVSVSCGIPDFRSRDGIYARLAVDFPDLPDPQAMFDIEYFRKDPRPFFKFAKEIYPGQFQPSLCHKFIALSDKEGKLLRNYTQNIDTLEQVAGIQRIIQCHGSFATASCLICKYKVDCEAVRGDIFNQVVPRCPRCPADEPLAIMKPEIVFFGENLPEQFHRAMKYDKDEVDLLIVIGSSLKVRPVALIPSSIPHEVPQILINREPLPHLHFDVELLGDCDVIINELCHRLGGEYAKLCCNPVKLSEITEKPPRTQKELAYLSELPPTPLHVSEDSSSPERTSPPDSSVIVTLLDQAAKSNDDLDVSESKGCMEEKPQEVQTSRNVESIAEQMENPDLKNVGSSTGEKNERTSVAGTVRKCWPNRVAKEQISRRLDGNQYLFLPPNRYIFHGAEVYSDSEDDVLSSSSCGSNSDSGTCQSPSLEEPMEDESEIEEFYNGLEDEPDVPERAGGAGFGTDGDDQEAINEAISVKQEVTDMNYPSNKS
B2: recombinant SirT2 (protein)
chain: MAEPDPSHPLETQAGKVQEAQDSDSDSEGGAAGGEADMDFLRNLFSQTLSLGSQKERLLDELTLEGVARYMQSERCRRVICLVGAGISTSAGIPDFRSPSTGLYDNLEKYHLPYPEAIFEISYFKKHPEPFFALAKELYPGQFKPTICHYFMRLLKDKGLLLRCYTQNIDTLERIAGLEQEDLVEAHGTFYTSHCVSASCRHEYPLSWMKEKIFSEVTPKCEDCQSLVKPDIVFFGESLPARFFSCMQSDFLKVDLLLVMGTSLQVQPFASLISKAPLSTPRLLINKEKAGQSDPFLGMIMGLGGGMDFDSKKAYRDVAWLGECDQGCLALAELLGWKKELEDLVRREHASIDAQSGAGVPNPSTSASPKKSPPPAKDEARTTEREKPQ
B3: recombinant SirT3 (protein)
chain: MAFWGWRAAAALRLWGRVVERVEAGGGVGPFQACGCRLVLGGRDDVSAGLRGSHGARGEPLDPARPLQRPPRPEVPRAFRRQPRAAAPSFFFSSIKGGRRSISFSVGASSVVGSGGSSDKGKLSLQDVAELIRARACQRVVVMVGAGISTPSGIPDFRSPGSGLYSNLQQYDLPYPEAIFELPFFFHNPKPFFTLAKELYPGNYKPNVTHYFLRLLHDKGLLLRLYTQNIDGLERVSGIPASKLVEAHGTFASATCTVCQRPFPGEDIRADVMADRVPRCPVCTGVVKPDIVFFGEPLPQRFLLHVVDFPMADLLLILGTSLEVEPFASLTEAVRSSVPRLLINRDLVGPLAWHPRSRDVAQLGDVVHGVESLVELLGWTEEMRDLVQRETGKLDGPDK

Key:
[1] = target: purified recombinant HA-H1b (expressed in E. coli), P10412
Chain of purified recombinant HA-H1b (expressed in E. coli), P10412 (P10412 whole entry, looked up): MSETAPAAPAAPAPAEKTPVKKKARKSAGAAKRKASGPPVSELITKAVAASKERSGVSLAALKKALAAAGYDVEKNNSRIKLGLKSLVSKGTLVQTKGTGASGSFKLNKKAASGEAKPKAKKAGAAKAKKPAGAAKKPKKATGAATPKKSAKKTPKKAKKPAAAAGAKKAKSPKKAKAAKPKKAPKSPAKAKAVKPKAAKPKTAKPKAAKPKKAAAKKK

[2] = target: histone H1 (purified calf thymus H1)
[3] = target: H1 histones isolated from cells treated with TSA and nicotinamide, P10412
Chain of H1 histones isolated from cells treated with TSA and nicotinamide, P10412 (P10412 whole entry, looked up): as above

Protein | release of [3H]-acetyl label from p300-acetylated recombinant H1b [1] | nicotinamide exchange reaction (NER) with H1 as acetylated substrate [2] | release of [3H]-acetyl label from p300-acetylated H1 [2] | western blot with the acetyl H1-K26 antibody after treatment with SirT1 [3]
B1 | The same result was observed using recombinant human H1b | Histone H1 served as substrate in the SirT1-dependent NER assay | SirT1 -released up to 70% of the total label | resulted in decreased immunoreactivity
B2 | SirT2 or SirT3 failed to significantly deacetylate H1b | – | – | –
B3 | SirT2 or SirT3 failed to significantly deacetylate H1b | – | – | –
